Laboratory results from patent US20130133108A1, “EXTRACTS FROM PIRIN+ AND PIRIN- PLANTS AND USES THEREOF” (priority 2010, published 2013).

T1: In vitro-translated AtGPA1 pre-incubated with GTPgammaS (permanently activated conformation) (Arabidopsis thaliana, UniProt P18064 1-383)
T1 construct: Same polypeptide as m3 but a different nucleotide state; also called GPA1-GTPgammaS
T1 sequence (looked up): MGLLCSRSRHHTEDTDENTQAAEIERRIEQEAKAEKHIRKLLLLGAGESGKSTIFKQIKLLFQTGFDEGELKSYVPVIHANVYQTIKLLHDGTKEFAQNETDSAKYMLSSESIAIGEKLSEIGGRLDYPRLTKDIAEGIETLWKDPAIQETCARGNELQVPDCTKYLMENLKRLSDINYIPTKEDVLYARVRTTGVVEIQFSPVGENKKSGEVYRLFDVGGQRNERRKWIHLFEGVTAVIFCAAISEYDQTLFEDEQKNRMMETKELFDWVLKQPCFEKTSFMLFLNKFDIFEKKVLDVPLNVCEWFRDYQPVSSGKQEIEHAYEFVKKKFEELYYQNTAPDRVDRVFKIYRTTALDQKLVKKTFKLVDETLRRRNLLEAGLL

T2: In vitro-translated AtGPA1 pre-incubated with GDPalphaS (permanently inactive conformation) (Arabidopsis thaliana, UniProt P18064 1-383)
T2 construct: Same polypeptide as m2 but a different nucleotide state; also called GPA1-GDPalpha
T2 sequence (looked up): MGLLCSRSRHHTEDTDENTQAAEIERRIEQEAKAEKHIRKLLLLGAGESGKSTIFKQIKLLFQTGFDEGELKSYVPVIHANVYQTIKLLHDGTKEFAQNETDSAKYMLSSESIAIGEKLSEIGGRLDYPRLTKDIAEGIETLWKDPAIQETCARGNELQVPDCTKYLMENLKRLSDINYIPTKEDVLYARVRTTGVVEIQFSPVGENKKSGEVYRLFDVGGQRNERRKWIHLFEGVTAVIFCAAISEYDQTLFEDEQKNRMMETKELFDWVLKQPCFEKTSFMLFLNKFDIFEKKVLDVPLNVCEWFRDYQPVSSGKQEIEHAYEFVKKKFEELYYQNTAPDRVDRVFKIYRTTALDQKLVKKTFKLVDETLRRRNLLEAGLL


Key:
animal cells = details: reported, no source named; cited from earlier work
[1] = target: T1, In vitro-translated AtGPA1 …; experiment: in vitro association/activity assay, GPA1:Pirin1 1:1, interaction inferred from loss of quercetinase activity
Experimental: (§1) Translated Pirin1 was prepared as described above and in vitro association assays were conducted in assay buffer (pre-incubations included magnesium) at 26° C. (Adams and Jai, J. Biol. Chem. 280(31):28675-82, 2005; Warpeha et al., Plant Physiol. 140:844-55, 2006). GPA1 was incubated with Pirin1 in a 1:1 ratio. “Activated” Pirin1 was achieved by pre-incubation with 100 μM GTPγS (a non-hydrolysable GTP analog). “Inactivated” Pirin1 was achieved by pre-incubation with GDP, or GDPγS (a non-hydrolysable GDP analog). Both pre-incubations occurred overnight in darkness at 10° C.
(§2) The observed AtPirin1 quercetinase activity is regulated through its' interactions with GPA. […] AtGPA1 bound to one of the two non-hydrolyzable analogs was then incubated with AtPirin1 and quercetin in conditions identical to that for FIG. 1.

[2] = target: T2, In vitro-translated AtGPA1 …; experiment: in vitro association/activity assay, GPA1:Pirin1 1:1, association inferred from the quercetin absorbance spectrum
Experimental: as §1, §2

[3] = Quercetinase (quercetin 2,3-dioxygenase) activity of in vitro-translated AtPirin1, absorbance spectrum; assay type: biochemical, Arabidopsis thaliana
Experimental: Full-length PIRIN1 template was prepared, amplified and purified by the methods described (Lapik and Kaufman, Plant Cell. 15(7):1578-90, 2003; Warpeha et al., Plant Physiol. 140:844-55, 2006). Pirin1 proteins were individually produced by coupled in vitro transcription/translation using TNT T7 Coupled Wheat Germ Extract System (Promega; Madison, Wis.) as directed and as modified previously (Warpeha et al., Plant Physiol. 140:844-55, 2006). Translated Pirin1 was subsequently incubated with quercetin in complete darkness in a 26° C. circulating water bath for 15 minutes.
The quercetin 2,3-dioxygenase activity of Pirin1 was determined as described in Adams and Jai (J. Biol. Chem. 280(31):28675-82, 2005). Briefly, the quercetin 2,3-dioxygenase activity of pirin wase assayed at 295 K for 5 min in a reaction mixture containing 50 mm NaH2PO4, pH 8.0, 300 mm NaCl, 60 μm quercetin in Me2SO, and 18.5 nm enzyme. Activity was observed by following the decrease in the absorbance maximum for quercetin, which occurs at 384 nm at pH 8.0. The inhibitors kojic acid, sodium diethyldithiocarbamate, and 1,10-phenanthroline monohydrochloride were dissolved in Me2SO and added to the reactions at a final concentration of 50 nm.
as §1

| binding result [1] | binding result [2] | absorbance peak of quercetin with AtPirin1 and inactivated conformation of AtGPA1 ([3]; AtGPA1 pre-incubated with non-hydrolysable GDP analog, FIG. 2) | absorbance peak of quercetin after addition of AtPirin1 ([3]; AtPirin1 alone, within 15 min at 26° C., quercetin alone 384 nm) | Molecule | concentration considered toxic in animal cells (animal cells) | quercetinase activity with activated conformation of AtGPA1 ([3]; AtGPA1 pre-incubated with GTPγS, FIG. 2) | quercetinase activity (cleavage of quercetin) ([3]; AtPirin1 alone with quercetin, 15 min at 26° C., FIG. 1) |
| --- | --- | --- | --- | --- | --- | --- | --- |
|  |  |  |  | O=c1c(O)c(-c2ccc(O)c(O)c2)oc2cc(O)cc(O)c12 [quercetin] | above 20 μM |  |  |
| binds | binds | 405-410 nm | 405-410 nm | Arabidopsis thaliana Pirin1 (AtPirin1), in vitro-translated (enzyme, also called PRN1; Prn1) MTYENNSVPRIVIKKVLAKLEKEGEGAVVRNGITKIDQKLLDPFVLLVEFSFSLSAGFPDHPHRGFESVTYMLQGGIIHKDPKGHKGTIQAGDVQWMTAGRGIIHSEFPEEEVNNGLQLWINLPSTEKMTEPKYKELSSLDIPRAEENGVEVKVIAGDSMGIKSPVYTRTPTMFLDFTLKPGSQTHQTVPESWTAFAYIIEGDEGVFGSLNSSAISAHHVVVFGPGDLVSVWNKSTSRSLRFLLIAGEPIGEPVVQCGPFVMNSQAEIDMAFDDYQNAKNGFEMAKC |  | no quercetinase activity | specific cleavage of quercetin |
